According to the RNAGym collection of RNA variant scans (doi:10.7554/elife.80360):

B1: CPEB3 Ribozyme (parent)
chain: GGGGGCCACAGCAGAAGCGUUCACGUCGCGGCCCCUGUCAGAUUCUGGUGAAUCUGCGAAUUCUGCUGU

Variants of: B1
Test: self-cleavage, relative activity (ratio to wild type); higher = more cleavage; co-transcriptional
In the case of A16G U21G, the self-cleavage is reported as 0.395. A16G U21C gave a self-cleavage of 0.777. A16U G30C showed a self-cleavage of 0.189. Work on A16U G30A yielded a self-cleavage of 0.22. Variant G17A U20C has a self-cleavage of 0.0978. A16G G30A showed a self-cleavage of 0.612. In the case of A16G G30C, the self-cleavage is reported as 0.105. Variant A16G G30U has a self-cleavage of 0.201. For A16U C34G, the self-cleavage was 0.353. Variant A16U C34A has a self-cleavage of 0.4. A16U C34U showed a self-cleavage of 0.892. Work on A16G yielded a self-cleavage of 0.946. Work on A16U yielded a self-cleavage of 0.888. A16G U20G showed a self-cleavage of 0.155. Work on A16G U20C yielded a self-cleavage of 0.159. In the case of A16G U20A, the self-cleavage is reported as 0.129. A16U U53G showed a self-cleavage of 0.549. A16U U53A gave a self-cleavage of 0.66. G17A G31C showed a self-cleavage of 0.135. Work on G17A G31U yielded a self-cleavage of 0.113. For G17A C33U, the self-cleavage was 0.43. For A16U C32U, the self-cleavage was 0.936. Work on A16U C32G yielded a self-cleavage of 0.24. Variant A16U G68C has a self-cleavage of 0.875. A16U G68U gave a self-cleavage of 0.948. Work on A16G C29A yielded a self-cleavage of 0.224. Variant A16G C29U has a self-cleavage of 0.111. A16G C63A gave a self-cleavage of 0.648. With A16G C63G the self-cleavage was 0.527. Work on A16C U64G yielded a self-cleavage of 0.119. A16G C18U showed a self-cleavage of 0.569. For A16G C18A, the self-cleavage was 0.0836. For G17A C39U, the self-cleavage was 0.213. G17A C39G showed a self-cleavage of 0.216. G17A C39A showed a self-cleavage of 0.201. Variant G17A U49A has a self-cleavage of 0.611. Variant G17A U49C has a self-cleavage of 0.486. In the case of G17A U49G, the self-cleavage is reported as 0.444. Variant A16G C54U has a self-cleavage of 0.928. With A16C U20G the self-cleavage was 0.285. G17A G30U gave a self-cleavage of 0.176. Variant G17A G30A has a self-cleavage of 0.164. In the case of A16U A52G, the self-cleavage is reported as 0.888. G17A A23C showed a self-cleavage of 0.483. Work on G17A A23U yielded a self-cleavage of 0.585. Variant G17A A23G has a self-cleavage of 0.243. A16G U49G showed a self-cleavage of 0.979. In the case of G17A C54A, the self-cleavage is reported as 0.236. Work on G17A C54U yielded a self-cleavage of 0.488. G17A C54G showed a self-cleavage of 0.187. In the case of A16C U69A, the self-cleavage is reported as 0.451. For A16C U69G, the self-cleavage was 0.588. Variant A16U C18A has a self-cleavage of 0.0736. Work on G17A G58U yielded a self-cleavage of 0.539. G17A G58C gave a self-cleavage of 0.454. Work on G17A G58A yielded a self-cleavage of 0.259. With A16C G58U the self-cleavage was 0.494. In the case of A16C G58C, the self-cleavage is reported as 0.28. A16C G58A gave a self-cleavage of 0.189. Variant A16U C33G has a self-cleavage of 0.319. Work on A16U C33A yielded a self-cleavage of 0.555. Variant A16U C33U has a self-cleavage of 0.865. A16U U20C showed a self-cleavage of 0.196. Variant A16U U20A has a self-cleavage of 0.124. A16G U64A gave a self-cleavage of 0.645. In the case of A16G U64G, the self-cleavage is reported as 0.727. Variant G17A U64A has a self-cleavage of 0.211. Work on A16C U53C yielded a self-cleavage of 0.152. In the case of A16C U53G, the self-cleavage is reported as 0.251. Variant A16U U43A has a self-cleavage of 0.615. In the case of A16U U43G, the self-cleavage is reported as 0.395. In the case of A16U A60C, the self-cleavage is reported as 0.227. A16U A60G showed a self-cleavage of 0.56. Work on A16U A60U yielded a self-cleavage of 0.251. With G17A C34A the self-cleavage was 0.2. Variant G17A C34U has a self-cleavage of 0.524. For A16C U67A, the self-cleavage was 0.331. In the case of A16C U67G, the self-cleavage is reported as 0.257. Work on A16U A40G yielded a self-cleavage of 0.754. Variant A16G U26G has a self-cleavage of 0.848. In the case of A16G U26A, the self-cleavage is reported as 0.801. Variant G17A U21C has a self-cleavage of 0.169. Variant G17A U21A has a self-cleavage of 0.384. In the case of G17A U21G, the self-cleavage is reported as 0.128. For A16G G50U, the self-cleavage was 0.994. For A16G U55C, the self-cleavage was 0.534. In the case of A16C G68C, the self-cleavage is reported as 0.454. Work on A16C G68A yielded a self-cleavage of 0.61. A16U U62C gave a self-cleavage of 0.734. Work on A16U U62G yielded a self-cleavage of 0.625. A16G A52G showed a self-cleavage of 0.87. Variant A16G A52U has a self-cleavage of 0.804. In the case of A16G C66G, the self-cleavage is reported as 0.646. With A16G C66U the self-cleavage was 0.89. Work on A16U G47A yielded a self-cleavage of 0.893. Work on A16G U46C yielded a self-cleavage of 0.728. Variant A16G U46G has a self-cleavage of 0.969. Work on A16U U36C yielded a self-cleavage of 0.438. With A16U U36A the self-cleavage was 0.166. With G17A G28U the self-cleavage was 0.139. In the case of G17A G28A, the self-cleavage is reported as 0.145. In the case of A16G A23C, the self-cleavage is reported as 0.928. A16G A23U gave a self-cleavage of 0.955. In the case of A16G A23G, the self-cleavage is reported as 0.921. G17A C18G gave a self-cleavage of 0.147. With G17A C18A the self-cleavage was 0.116. G17A G48C showed a self-cleavage of 0.599. In the case of G17A U44A, the self-cleavage is reported as 0.397. Work on G17A U44G yielded a self-cleavage of 0.302. In the case of G17A U44C, the self-cleavage is reported as 0.255. For A16C U21G, the self-cleavage was 0.0655. Work on A16C U21A yielded a self-cleavage of 0.273. In the case of A16G G31C, the self-cleavage is reported as 0.147. A16G G31A gave a self-cleavage of 0.527. A16G G31U showed a self-cleavage of 0.309. Work on G17A G65U yielded a self-cleavage of 0.225. Work on G17A G65A yielded a self-cleavage of 0.203. In the case of G17A G65C, the self-cleavage is reported as 0.27. In the case of G17A G68A, the self-cleavage is reported as 0.843. G17A G68U showed a self-cleavage of 0.751. Work on G17A G68C yielded a self-cleavage of 0.704. Work on A16U U21A yielded a self-cleavage of 0.839. For A16G U43C, the self-cleavage was 0.791. Variant A16G U43A has a self-cleavage of 0.784. Variant A16G G47U has a self-cleavage of 0.998. With A16U U38A the self-cleavage was 0.424. With A16U U38C the self-cleavage was 0.625. A16C G65U showed a self-cleavage of 0.13. For A16C G65A, the self-cleavage was 0.155. For A16G G25U, the self-cleavage was 0.174. Work on A16G G25C yielded a self-cleavage of 0.257. Work on A16G G25A yielded a self-cleavage of 0.283. In the case of A16G G48A, the self-cleavage is reported as 0.964. With A16G G48U the self-cleavage was 0.974. Variant A16G G48C has a self-cleavage of 0.892. Work on G17A C66G yielded a self-cleavage of 0.233. Variant G17A C66U has a self-cleavage of 0.347. With G17A C66A the self-cleavage was 0.226. A16U G25C gave a self-cleavage of 0.194. With G17A U62G the self-cleavage was 0.198. With G17A U62C the self-cleavage was 0.193. In the case of G17A G37C, the self-cleavage is reported as 0.149. With G17A G37A the self-cleavage was 0.153. Work on A16U G58A yielded a self-cleavage of 0.866. For A16U G58C, the self-cleavage was 0.756. With G17A A51C the self-cleavage was 0.452. For G17A A51G, the self-cleavage was 0.455. A16U G17A gave a self-cleavage of 0.203. Variant A16U G17U has a self-cleavage of 0.147. For A16C U26A, the self-cleavage was 0.158. With A16C U26G the self-cleavage was 0.102. Variant A16C U26C has a self-cleavage of 0.264. For A16G G41C, the self-cleavage was 0.41. Work on A16G G41U yielded a self-cleavage of 0.472. For A16G U69G, the self-cleavage was 1.04. Work on A16G U69A yielded a self-cleavage of 1.04. For A16U G48C, the self-cleavage was 0.889. For A16U G48A, the self-cleavage was 0.862. A16G C45A showed a self-cleavage of 0.811. A16G C45G showed a self-cleavage of 0.958. For A16G C45U, the self-cleavage was 0.884. With G17A U26C the self-cleavage was 0.335. Variant G17A U26G has a self-cleavage of 0.413. A16U C29G gave a self-cleavage of 0.243. Variant A16U C29A has a self-cleavage of 0.288. For A16G C35U, the self-cleavage was 0.893. A16U G41C gave a self-cleavage of 0.366.
